Measurements taken from patent US20150329606A1 (COMMISSARIAT A L ENERGIE ATOMIQUE ET AUX ENERGIES …, published 2015).

Biological target: T1, C1q derived from serum (human, UniProt P02745 23-245; P02746 28-253; P02747 29-245)
T1 construct: mature; Native C1q from serum, the comparator in SPR; The SPR paragraph says only 'serum C1q'; also called serC1q; serum C1q
Test: SPR, C1q immobilized on CM5 chip, tetramer injected at 1-24 nM

T1 sequence (P02745 23-245, chain 1 of 3): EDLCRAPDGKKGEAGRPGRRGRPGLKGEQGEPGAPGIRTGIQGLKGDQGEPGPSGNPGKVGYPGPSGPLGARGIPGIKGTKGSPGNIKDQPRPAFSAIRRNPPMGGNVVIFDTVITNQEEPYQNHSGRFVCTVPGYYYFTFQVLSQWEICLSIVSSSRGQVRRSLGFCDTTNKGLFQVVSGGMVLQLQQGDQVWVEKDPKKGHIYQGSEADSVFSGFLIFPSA
T1 sequence (P02746 28-253, chain 2 of 3): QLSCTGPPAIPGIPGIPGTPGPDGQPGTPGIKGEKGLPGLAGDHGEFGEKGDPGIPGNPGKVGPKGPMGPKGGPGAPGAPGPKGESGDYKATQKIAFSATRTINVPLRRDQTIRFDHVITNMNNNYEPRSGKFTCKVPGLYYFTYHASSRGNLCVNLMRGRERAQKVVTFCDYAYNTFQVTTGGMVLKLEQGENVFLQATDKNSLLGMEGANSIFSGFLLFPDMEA
T1 sequence (P02747 29-245, chain 3 of 3): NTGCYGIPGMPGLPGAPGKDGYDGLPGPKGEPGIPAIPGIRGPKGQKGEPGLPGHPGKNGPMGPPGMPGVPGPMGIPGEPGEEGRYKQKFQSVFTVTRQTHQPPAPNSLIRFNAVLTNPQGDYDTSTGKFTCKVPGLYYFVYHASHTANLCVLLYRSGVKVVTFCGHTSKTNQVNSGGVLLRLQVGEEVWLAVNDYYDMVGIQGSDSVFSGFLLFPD

Kd: 3.12 nM | koff: 0.00212 s⁻¹ | kon: 681000 M⁻¹ s⁻¹
B1: C1s-C1r-C1r-C1s tetramer (enzyme)
chain 1: SIPIPQKLFGEVTSPLFPKPYPNNFETTTVITVPTGYRVKLVFQQFDLEPSEGCFYDYVKISADKKSLGRFCGQLGSPLGNPPGKKEFMSQGNKMLLTFHTDFSNEENGTIMFYKGFLAYYQAVDLDECASRSKSGEEDPQPQCQHLCHNYVGGYFCSCRPGYELQEDTHSCQAECSSELYTEASGYISSLEYPRSYPPDLRCNYSIRVERGLTLHLKFLEPFDIDDHQQVHCPYDQLQIYANGKNIGEFCGKQRPPDLDTSSNAVDLLFFTDESGDSRGWKLRYTTEIIKCPQPKTLDEFTIIQNLQPQYQFRDYFIATCKQGYQLIEGNQVLHSFTAVCQDDGTWHRAMPRCKIKDCGQPRNLPNGDFRYTTTMGVNTYKARIQYYCHEPYYKMQTRAGSRESEQGVYTCTAQGIWKNEQKGEKIPRCLPVCGKPVNPVEQRQRIIGGQKAKMGNFPWQVFTNIHGRGGGALLGDRWILTAAHTLYPKEHEAQSNASLDVFLGHTNVEELMKLGNHPIRRVSVHPDYRQDESYNFEGDIALLELENSVTLGPNLLPICLPDNDTFYDLGLMGYVSGFGVMEEKIAHDLRFVRLPVANPQACENWLRGKNRMDVFSQNMFCAGHPSLKQDACQGDSGGVFAVRDPNTDRWVATGIVSWGIGCSRGYGFYTKVLNYVDWIKKEMEEED
chain 2: EPTMYGEILSPNYPQAYPSEVEKSWDIEVPEGYGIHLYFTHLDIELSENCAYDSVQIISGDTEEGRLCGQRSSNNPHSPIVEEFQVPYNKLQVIFKSDFSNEERFTGFAAYYVATDINECTDFVDVPCSHFCNNFIGGYFCSCPPEYFLHDDMKNCGVNCSGDVFTALIGEIASPNYPKPYPENSRCEYQIRLEKGFQVVVTLRREDFDVEAADSAGNCLDSLVFVAGDRQFGPYCGHGFPGPLNIETKSNALDIIFQTDLTGQKKGWKLRYHGDPMPCPKEDTPNSVWEPAKAKYVFRDVVQITCLDGFEVVEGRVGATSFYSTCQSNGKWSNSKLKCQPVDCGIPESIENGKVEDPESTLFGSVIRYTCEEPYYYMENGGGGEYHCAGNGSWVNEVLGPELPKCVPVCGVPREPFEEKQRIIGGSDADIKNFPWQVFFDNPWAGGALINEYWVLTAAHVVEGNREPTMYVGSTSVQTSRLAKSKMLTPEHVFIHPGWKLLEVPEGRTNFDNDIALVRLKDPVKMGPTVSPICLPGTSSDYNLMDGDLGLISGWGRTEKRDRAVRLKAARLPVAPLRKCKEVKVEKPTADAEAYVFTPNMICAGGEKGMDSCKGDSGGAFAVQDPNDKTKFYAAGLVSWGPQCGTYGLYTRVKNYVDWIMKTMQENSTPRED
notes: also called C1s-C1r-C1r-C1s proenzyme tetramer;2-C1s2
